Starred links: 1 amine or outer side, 2 acyl side, 3 side chain; linkers in the order of their positions; H or OH if unused. Non-standard residues stand in square brackets, D forms with d. Groups on a side chain read outwards from the residue. No end group written: not given here. *: point of attachment. C16 diacid = O=C(O)CCCCCCCCCCCCCCC(=O)*; γGlu = O=C(O)[C@H](CCC(=O)[*:2])N[*:1]; Aib = CC(C)(N)C(=O)O
T1: CRF1R receptor (anti-target) (UniProt P34998 24-415, limits assumed)
T1 sequence (looked up): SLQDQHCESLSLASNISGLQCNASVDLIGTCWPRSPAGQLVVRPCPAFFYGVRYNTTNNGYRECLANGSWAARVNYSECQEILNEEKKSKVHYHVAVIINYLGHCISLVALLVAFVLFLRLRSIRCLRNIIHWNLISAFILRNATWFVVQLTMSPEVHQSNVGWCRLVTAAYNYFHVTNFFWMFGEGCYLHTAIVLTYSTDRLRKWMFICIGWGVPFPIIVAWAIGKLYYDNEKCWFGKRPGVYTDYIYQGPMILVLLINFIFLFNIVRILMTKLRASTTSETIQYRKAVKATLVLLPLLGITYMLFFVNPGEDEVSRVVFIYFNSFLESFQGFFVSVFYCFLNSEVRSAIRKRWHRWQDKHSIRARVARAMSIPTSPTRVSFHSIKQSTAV

B1: peptide of SEQ ID NO: 187 (peptide)
peptide: IVLSLD[dV]PIKLK([γGlu-C16 diacid])QILLKQERQK[Aib]QREQAEKNKQILAQV-NH2
modifications: N-terminus assumed
SMILES: CC[C@H](C)[C@H](N)C(=O)N[C@H](C(=O)N[C@@H](CC(C)C)C(=O)N[C@@H](CO)C(=O)N[C@@H](CC(C)C)C(=O)N[C@@H](CC(=O)O)C(=O)N[C@@H](C(=O)N1CCC[C@H]1C(=O)N[C@H](C(=O)N[C@@H](CCCCN)C(=O)N[C@@H](CC(C)C)C(=O)N[C@@H](CCCCNC(=O)CC[C@H](NC(=O)CCCCCCCCCCCCCCC(=O)O)C(=O)O)C(=O)N[C@@H](CCC(N)=O)C(=O)N[C@H](C(=O)N[C@@H](CC(C)C)C(=O)N[C@@H](CC(C)C)C(=O)N[C@@H](CCCCN)C(=O)N[C@@H](CCC(N)=O)C(=O)N[C@@H](CCC(=O)O)C(=O)N[C@@H](CCCNC(=N)N)C(=O)N[C@@H](CCC(N)=O)C(=O)N[C@@H](CCCCN)C(=O)NC(C)(C)C(=O)N[C@@H](CCC(N)=O)C(=O)N[C@@H](CCCNC(=N)N)C(=O)N[C@@H](CCC(=O)O)C(=O)N[C@@H](CCC(N)=O)C(=O)N[C@@H](C)C(=O)N[C@@H](CCC(=O)O)C(=O)N[C@@H](CCCCN)C(=O)N[C@@H](CC(N)=O)C(=O)N[C@@H](CCCCN)C(=O)N[C@@H](CCC(N)=O)C(=O)N[C@H](C(=O)N[C@@H](CC(C)C)C(=O)N[C@@H](C)C(=O)N[C@@H](CCC(N)=O)C(=O)N[C@H](C(N)=O)C(C)C)[C@@H](C)CC)[C@@H](C)CC)[C@@H](C)CC)C(C)C)C(C)C
B2: peptide of SEQ ID NO: 190 (peptide)
peptide: IVLSLD[dV]PIKLK([γGlu-C16 diacid])QILLKQERQKKQREQAEKNKQILEQV-NH2
modifications: N-terminus assumed
SMILES: CC[C@H](C)[C@H](N)C(=O)N[C@H](C(=O)N[C@@H](CC(C)C)C(=O)N[C@@H](CO)C(=O)N[C@@H](CC(C)C)C(=O)N[C@@H](CC(=O)O)C(=O)N[C@@H](C(=O)N1CCC[C@H]1C(=O)N[C@H](C(=O)N[C@@H](CCCCN)C(=O)N[C@@H](CC(C)C)C(=O)N[C@@H](CCCCNC(=O)CC[C@H](NC(=O)CCCCCCCCCCCCCCC(=O)O)C(=O)O)C(=O)N[C@@H](CCC(N)=O)C(=O)N[C@H](C(=O)N[C@@H](CC(C)C)C(=O)N[C@@H](CC(C)C)C(=O)N[C@@H](CCCCN)C(=O)N[C@@H](CCC(N)=O)C(=O)N[C@@H](CCC(=O)O)C(=O)N[C@@H](CCCNC(=N)N)C(=O)N[C@@H](CCC(N)=O)C(=O)N[C@@H](CCCCN)C(=O)N[C@@H](CCCCN)C(=O)N[C@@H](CCC(N)=O)C(=O)N[C@@H](CCCNC(=N)N)C(=O)N[C@@H](CCC(=O)O)C(=O)N[C@@H](CCC(N)=O)C(=O)N[C@@H](C)C(=O)N[C@@H](CCC(=O)O)C(=O)N[C@@H](CCCCN)C(=O)N[C@@H](CC(N)=O)C(=O)N[C@@H](CCCCN)C(=O)N[C@@H](CCC(N)=O)C(=O)N[C@H](C(=O)N[C@@H](CC(C)C)C(=O)N[C@@H](CCC(=O)O)C(=O)N[C@@H](CCC(N)=O)C(=O)N[C@H](C(N)=O)C(C)C)[C@@H](C)CC)[C@@H](C)CC)[C@@H](C)CC)C(C)C)C(C)C
B3: peptide of SEQ ID NO: 193 (peptide)
peptide: IVLSLD[dV]PIGLK([γGlu-C16 diacid])QILLKQERQKK[Aib]REQAETNKRILERV-NH2
modifications: N-terminus assumed
SMILES: CC[C@H](C)[C@H](N)C(=O)N[C@H](C(=O)N[C@@H](CC(C)C)C(=O)N[C@@H](CO)C(=O)N[C@@H](CC(C)C)C(=O)N[C@@H](CC(=O)O)C(=O)N[C@@H](C(=O)N1CCC[C@H]1C(=O)N[C@H](C(=O)NCC(=O)N[C@@H](CC(C)C)C(=O)N[C@@H](CCCCNC(=O)CC[C@H](NC(=O)CCCCCCCCCCCCCCC(=O)O)C(=O)O)C(=O)N[C@@H](CCC(N)=O)C(=O)N[C@H](C(=O)N[C@@H](CC(C)C)C(=O)N[C@@H](CC(C)C)C(=O)N[C@@H](CCCCN)C(=O)N[C@@H](CCC(N)=O)C(=O)N[C@@H](CCC(=O)O)C(=O)N[C@@H](CCCNC(=N)N)C(=O)N[C@@H](CCC(N)=O)C(=O)N[C@@H](CCCCN)C(=O)N[C@@H](CCCCN)C(=O)NC(C)(C)C(=O)N[C@@H](CCCNC(=N)N)C(=O)N[C@@H](CCC(=O)O)C(=O)N[C@@H](CCC(N)=O)C(=O)N[C@@H](C)C(=O)N[C@@H](CCC(=O)O)C(=O)N[C@H](C(=O)N[C@@H](CC(N)=O)C(=O)N[C@@H](CCCCN)C(=O)N[C@@H](CCCNC(=N)N)C(=O)N[C@H](C(=O)N[C@@H](CC(C)C)C(=O)N[C@@H](CCC(=O)O)C(=O)N[C@@H](CCCNC(=N)N)C(=O)N[C@H](C(N)=O)C(C)C)[C@@H](C)CC)[C@@H](C)O)[C@@H](C)CC)[C@@H](C)CC)C(C)C)C(C)C
B4: peptide of SEQ ID NO: 189 (peptide)
peptide: IVLSLD[dV]PIKLK([γGlu-C16 diacid])QILLKQERQKK[Aib]RQKAEKNKQILAQV-NH2
modifications: N-terminus assumed
SMILES: CC[C@H](C)[C@H](N)C(=O)N[C@H](C(=O)N[C@@H](CC(C)C)C(=O)N[C@@H](CO)C(=O)N[C@@H](CC(C)C)C(=O)N[C@@H](CC(=O)O)C(=O)N[C@@H](C(=O)N1CCC[C@H]1C(=O)N[C@H](C(=O)N[C@@H](CCCCN)C(=O)N[C@@H](CC(C)C)C(=O)N[C@@H](CCCCNC(=O)CC[C@H](NC(=O)CCCCCCCCCCCCCCC(=O)O)C(=O)O)C(=O)N[C@@H](CCC(N)=O)C(=O)N[C@H](C(=O)N[C@@H](CC(C)C)C(=O)N[C@@H](CC(C)C)C(=O)N[C@@H](CCCCN)C(=O)N[C@@H](CCC(N)=O)C(=O)N[C@@H](CCC(=O)O)C(=O)N[C@@H](CCCNC(=N)N)C(=O)N[C@@H](CCC(N)=O)C(=O)N[C@@H](CCCCN)C(=O)N[C@@H](CCCCN)C(=O)NC(C)(C)C(=O)N[C@@H](CCCNC(=N)N)C(=O)N[C@@H](CCC(N)=O)C(=O)N[C@@H](CCCCN)C(=O)N[C@@H](C)C(=O)N[C@@H](CCC(=O)O)C(=O)N[C@@H](CCCCN)C(=O)N[C@@H](CC(N)=O)C(=O)N[C@@H](CCCCN)C(=O)N[C@@H](CCC(N)=O)C(=O)N[C@H](C(=O)N[C@@H](CC(C)C)C(=O)N[C@@H](C)C(=O)N[C@@H](CCC(N)=O)C(=O)N[C@H](C(N)=O)C(C)C)[C@@H](C)CC)[C@@H](C)CC)[C@@H](C)CC)C(C)C)C(C)C
B5: peptide of SEQ ID NO: 196 (peptide)
peptide: IVLSLD[dV]PIGLK([γGlu-C16 diacid])QILLKQERQKK[Aib]REQAEKNKRILERV-NH2
modifications: N-terminus assumed
SMILES: CC[C@H](C)[C@H](N)C(=O)N[C@H](C(=O)N[C@@H](CC(C)C)C(=O)N[C@@H](CO)C(=O)N[C@@H](CC(C)C)C(=O)N[C@@H](CC(=O)O)C(=O)N[C@@H](C(=O)N1CCC[C@H]1C(=O)N[C@H](C(=O)NCC(=O)N[C@@H](CC(C)C)C(=O)N[C@@H](CCCCNC(=O)CC[C@H](NC(=O)CCCCCCCCCCCCCCC(=O)O)C(=O)O)C(=O)N[C@@H](CCC(N)=O)C(=O)N[C@H](C(=O)N[C@@H](CC(C)C)C(=O)N[C@@H](CC(C)C)C(=O)N[C@@H](CCCCN)C(=O)N[C@@H](CCC(N)=O)C(=O)N[C@@H](CCC(=O)O)C(=O)N[C@@H](CCCNC(=N)N)C(=O)N[C@@H](CCC(N)=O)C(=O)N[C@@H](CCCCN)C(=O)N[C@@H](CCCCN)C(=O)NC(C)(C)C(=O)N[C@@H](CCCNC(=N)N)C(=O)N[C@@H](CCC(=O)O)C(=O)N[C@@H](CCC(N)=O)C(=O)N[C@@H](C)C(=O)N[C@@H](CCC(=O)O)C(=O)N[C@@H](CCCCN)C(=O)N[C@@H](CC(N)=O)C(=O)N[C@@H](CCCCN)C(=O)N[C@@H](CCCNC(=N)N)C(=O)N[C@H](C(=O)N[C@@H](CC(C)C)C(=O)N[C@@H](CCC(=O)O)C(=O)N[C@@H](CCCNC(=N)N)C(=O)N[C@H](C(N)=O)C(C)C)[C@@H](C)CC)[C@@H](C)CC)[C@@H](C)CC)C(C)C)C(C)C
B6: peptide of SEQ ID NO: 195 (peptide)
peptide: IVLSLD[dV]PIGLK([γGlu-C16 diacid])QILLKQERQKK[Aib]RQQAETNKRILERV-NH2
modifications: N-terminus assumed
SMILES: CC[C@H](C)[C@H](N)C(=O)N[C@H](C(=O)N[C@@H](CC(C)C)C(=O)N[C@@H](CO)C(=O)N[C@@H](CC(C)C)C(=O)N[C@@H](CC(=O)O)C(=O)N[C@@H](C(=O)N1CCC[C@H]1C(=O)N[C@H](C(=O)NCC(=O)N[C@@H](CC(C)C)C(=O)N[C@@H](CCCCNC(=O)CC[C@H](NC(=O)CCCCCCCCCCCCCCC(=O)O)C(=O)O)C(=O)N[C@@H](CCC(N)=O)C(=O)N[C@H](C(=O)N[C@@H](CC(C)C)C(=O)N[C@@H](CC(C)C)C(=O)N[C@@H](CCCCN)C(=O)N[C@@H](CCC(N)=O)C(=O)N[C@@H](CCC(=O)O)C(=O)N[C@@H](CCCNC(=N)N)C(=O)N[C@@H](CCC(N)=O)C(=O)N[C@@H](CCCCN)C(=O)N[C@@H](CCCCN)C(=O)NC(C)(C)C(=O)N[C@@H](CCCNC(=N)N)C(=O)N[C@@H](CCC(N)=O)C(=O)N[C@@H](CCC(N)=O)C(=O)N[C@@H](C)C(=O)N[C@@H](CCC(=O)O)C(=O)N[C@H](C(=O)N[C@@H](CC(N)=O)C(=O)N[C@@H](CCCCN)C(=O)N[C@@H](CCCNC(=N)N)C(=O)N[C@H](C(=O)N[C@@H](CC(C)C)C(=O)N[C@@H](CCC(=O)O)C(=O)N[C@@H](CCCNC(=N)N)C(=O)N[C@H](C(N)=O)C(C)C)[C@@H](C)CC)[C@@H](C)O)[C@@H](C)CC)[C@@H](C)CC)C(C)C)C(C)C

Target: T1, CRF1R receptor (anti-target)
Experiment: cell-based or functional assay

Binder	EC50 [nM] 0% HSA (cAMP, HTRF) [nM]	Emax (%) (100% = Sauvagine at 100 nM)
B1	> 100	43.8
B2	> 100	12
B3	> 100	8.77
B4	> 100	15
B5	> 100	16.9
B6	> 100	17.1
